Data: US20170015758A1

What was measured:
[1] = target: PD1 (human) (UniProt Q15116); experiment: cell-based or functional assay
[2] = target: PD-L1 (human) (UniProt Q9NZQ7); experiment: cell-based or functional assay
Chain of UniProt Q9NZQ7 (Q9NZQ7 19-290): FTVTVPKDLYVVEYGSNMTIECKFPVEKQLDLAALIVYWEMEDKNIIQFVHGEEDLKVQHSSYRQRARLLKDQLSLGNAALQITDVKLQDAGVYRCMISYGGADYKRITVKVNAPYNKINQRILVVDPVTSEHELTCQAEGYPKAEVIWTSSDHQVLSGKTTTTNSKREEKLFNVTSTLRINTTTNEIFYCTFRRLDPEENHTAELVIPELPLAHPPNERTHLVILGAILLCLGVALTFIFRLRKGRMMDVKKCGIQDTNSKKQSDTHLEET

Chain of UniProt Q15116 (Q15116 25-288): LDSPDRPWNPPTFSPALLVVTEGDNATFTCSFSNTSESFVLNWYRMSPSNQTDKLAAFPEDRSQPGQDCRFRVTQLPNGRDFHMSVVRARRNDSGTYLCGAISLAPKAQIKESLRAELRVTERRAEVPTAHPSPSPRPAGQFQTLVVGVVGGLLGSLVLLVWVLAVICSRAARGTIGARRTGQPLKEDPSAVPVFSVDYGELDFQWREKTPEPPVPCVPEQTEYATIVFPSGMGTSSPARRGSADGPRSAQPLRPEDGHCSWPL

MEDI-565-mediated cytolysis of SW1463 with fresh T cells in the presence of anti-PD1 [1] | tumor-specific cytolytic activity, fresh T cells, PD1 inhibition alone [1] | tumor-specific cytolytic activity, fresh T cells, PD-L1 inhibition alone [2] | Substance | tumor killing in second round, T cells previously incubated with MEDI-565 and tumor, anti-PD1 added [1]
66.3% | 49.9% | – | Anti-PD1 (clone J116) (antibody) | 37.1%
– | – | 49.9% | Anti-PD-L1 (clone MIH1) (antibody) | –
